± gives the uncertainty stated by the source.
B1: DnaJ homolog subfamily C member 5, residues 16 to 77; numbered along this chain, Q9H3Z4 (parent)
chain: LYHVLGLDKNATSDDIKKSYRKLALKYHPDKNPDNPEAADKFKEINNAHAILTDATKRNIYD

Variants of: B1
Assay: abundance fitness (aPCA) (normalised: wild type 0, dead -1); higher = more abundant; growth selection in yeast, the domain comes from the species named
Details: Homo sapiens

**Q.** For LYHVLGLDKNATSDDIKKSYRKLALKYHPDKNPDNPEAADKFKEINNAHAILTDATKREIYD [N59E], which abundance fitness is on record?
**A.** 0.152 ± 0.11

**Q.** For LYHVLGLDKNATSDDIKKSYRKLALKYHPDKNPDNPEAADKFKEINNAHAILTDATKRFIYD [N59F], which abundance fitness is on record?
**A.** -0.151 ± 0.16

**Q.** Which abundance fitness does the source give for LYHVLGLDKNATSDDIKKSYRKLALKYHPDKNPDNPEAADKFKEINNAHAILTDATKRGIYD [N59G] here?
**A.** 0.101 ± 0.077

**Q.** For LYHVLGLDKNATSDDIKKSYRKLALKYHPDKNPDNPEAADKFKEINNAHAILTDATKRHIYD [N59H], which abundance fitness is on record?
**A.** -0.125 ± 0.14

**Q.** For LYHVLGLDKNATSDDIKKSYRKLALKYHPDKNPDNPEAADKFKEINNAHAILTDATKRIIYD [N59I], which abundance fitness is on record?
**A.** -0.044 ± 0.12

**Q.** Which abundance fitness does the source give for LYHVLGLDKNATSDDIKKSYRKLALKYHPDKNPDNPEAADKFKEINNAHAILTDATKRLIYD [N59L] here?
**A.** -0.139 ± 0.063

**Q.** For LYHVLGLDKNATSDDIKKSYRKLALKYHPDKNPDNPEAADKFKEINNAHAILTDATKRMIYD [N59M], which abundance fitness is on record?
**A.** -0.179 ± 0.1

**Q.** Which abundance fitness does the source give for LYHVLGLDKNATSDDIKKSYRKLALKYHPDKNPDNPEAADKFKEINNAHAILTDATKRQIYD [N59Q] here?
**A.** 0.007 ± 0.1

**Q.** With LYHVLGLDKNATSDDIKKSYRKLALKYHPDKNPDNPEAADKFKEINNAHAILTDATKRRIYD [N59R] as the variant, how does the abundance fitness read?
**A.** -0.107 ± 0.072

**Q.** For LYHVLGLDKNATSDDIKKSYRKLALKYHPDKNPDNPEAADKFKEINNAHAILTDATKRSIYD [N59S], which abundance fitness is on record?
**A.** -0.029 ± 0.089

**Q.** For LYHVLGLDKNATSDDIKKSYRKLALKYHPDKNPDNPEAADKFKEINNAHAILTDATKRVIYD [N59V], which abundance fitness is on record?
**A.** -0.121 ± 0.1

**Q.** For LYHVLGLDKNATSDDIKKSYRKLALKYHPDKNPDNPEAADKFKEINNAHAILTDATKRWIYD [N59W], which abundance fitness is on record?
**A.** -0.396 ± 0.087

**Q.** For LYHVLGLDKNATSDDIKKSYRKLALKYHPDKNPDNPEAADKFKEINNAHAILTDATKRYIYD [N59Y], which abundance fitness is on record?
**A.** -0.471 ± 0.17

**Q.** For LYHVLGLDKNATSDDIKKSYRKLALKYHPDKNPDNPEAADKFKEINNAHAILTDATKRNAYD [I60A], which abundance fitness is on record?
**A.** 0.257 ± 0.092

**Q.** For LYHVLGLDKNATSDDIKKSYRKLALKYHPDKNPDNPEAADKFKEINNAHAILTDATKRNCYD [I60C], which abundance fitness is on record?
**A.** 0.109 ± 0.1

**Q.** With LYHVLGLDKNATSDDIKKSYRKLALKYHPDKNPDNPEAADKFKEINNAHAILTDATKRNDYD [I60D] as the variant, how does the abundance fitness read?
**A.** 0.493 ± 0.21

**Q.** Which abundance fitness does the source give for LYHVLGLDKNATSDDIKKSYRKLALKYHPDKNPDNPEAADKFKEINNAHAILTDATKRNEYD [I60E] here?
**A.** 0.522 ± 0.094

**Q.** For LYHVLGLDKNATSDDIKKSYRKLALKYHPDKNPDNPEAADKFKEINNAHAILTDATKRNGYD [I60G], which abundance fitness is on record?
**A.** 0.223 ± 0.065

**Q.** Which abundance fitness does the source give for LYHVLGLDKNATSDDIKKSYRKLALKYHPDKNPDNPEAADKFKEINNAHAILTDATKRNHYD [I60H] here?
**A.** -0.135 ± 0.2

**Q.** For LYHVLGLDKNATSDDIKKSYRKLALKYHPDKNPDNPEAADKFKEINNAHAILTDATKRNKYD [I60K], which abundance fitness is on record?
**A.** 0.197 ± 0.11

**Q.** With LYHVLGLDKNATSDDIKKSYRKLALKYHPDKNPDNPEAADKFKEINNAHAILTDATKRNLYD [I60L] as the variant, how does the abundance fitness read?
**A.** 0.077 ± 0.093

**Q.** Which abundance fitness does the source give for LYHVLGLDKNATSDDIKKSYRKLALKYHPDKNPDNPEAADKFKEINNAHAILTDATKRNMYD [I60M] here?
**A.** 0.114 ± 0.1

**Q.** Which abundance fitness does the source give for LYHVLGLDKNATSDDIKKSYRKLALKYHPDKNPDNPEAADKFKEINNAHAILTDATKRNPYD [I60P] here?
**A.** -0.039 ± 0.088

**Q.** With LYHVLGLDKNATSDDIKKSYRKLALKYHPDKNPDNPEAADKFKEINNAHAILTDATKRNQYD [I60Q] as the variant, how does the abundance fitness read?
**A.** 0.168 ± 0.13

**Q.** With LYHVLGLDKNATSDDIKKSYRKLALKYHPDKNPDNPEAADKFKEINNAHAILTDATKRNRYD [I60R] as the variant, how does the abundance fitness read?
**A.** 0.08 ± 0.059

**Q.** Which abundance fitness does the source give for LYHVLGLDKNATSDDIKKSYRKLALKYHPDKNPDNPEAADKFKEINNAHAILTDATKRNSYD [I60S] here?
**A.** 0.258 ± 0.076

**Q.** With LYHVLGLDKNATSDDIKKSYRKLALKYHPDKNPDNPEAADKFKEINNAHAILTDATKRNTYD [I60T] as the variant, how does the abundance fitness read?
**A.** 0.054 ± 0.12

**Q.** Which abundance fitness does the source give for LYHVLGLDKNATSDDIKKSYRKLALKYHPDKNPDNPEAADKFKEINNAHAILTDATKRNVYD [I60V] here?
**A.** 0.176 ± 0.093

**Q.** For LYHVLGLDKNATSDDIKKSYRKLALKYHPDKNPDNPEAADKFKEINNAHAILTDATKRNWYD [I60W], which abundance fitness is on record?
**A.** 0.008 ± 0.09

**Q.** Which abundance fitness does the source give for LYHVLGLDKNATSDDIKKSYRKLALKYHPDKNPDNPEAADKFKEINNAHAILTDATKRNYYD [I60Y] here?
**A.** -0.074 ± 0.16

**Q.** Which abundance fitness does the source give for LYHVLGLDKNATSDDIKKSYRKLALKYHPDKNPDNPEAADKFKEINNAHAILTDATKRNIAD [Y61A] here?
**A.** 0.165 ± 0.089

**Q.** With LYHVLGLDKNATSDDIKKSYRKLALKYHPDKNPDNPEAADKFKEINNAHAILTDATKRNICD [Y61C] as the variant, how does the abundance fitness read?
**A.** -0.063 ± 0.098

**Q.** Which abundance fitness does the source give for LYHVLGLDKNATSDDIKKSYRKLALKYHPDKNPDNPEAADKFKEINNAHAILTDATKRNIDD [Y61D] here?
**A.** 0.22 ± 0.12

**Q.** With LYHVLGLDKNATSDDIKKSYRKLALKYHPDKNPDNPEAADKFKEINNAHAILTDATKRNIED [Y61E] as the variant, how does the abundance fitness read?
**A.** 0.157 ± 0.12

**Q.** Which abundance fitness does the source give for LYHVLGLDKNATSDDIKKSYRKLALKYHPDKNPDNPEAADKFKEINNAHAILTDATKRNIFD [Y61F] here?
**A.** -0.273 ± 0.12

**Q.** With LYHVLGLDKNATSDDIKKSYRKLALKYHPDKNPDNPEAADKFKEINNAHAILTDATKRNIGD [Y61G] as the variant, how does the abundance fitness read?
**A.** 0.226 ± 0.063

**Q.** Which abundance fitness does the source give for LYHVLGLDKNATSDDIKKSYRKLALKYHPDKNPDNPEAADKFKEINNAHAILTDATKRNIHD [Y61H] here?
**A.** 0.054 ± 0.21

**Q.** Which abundance fitness does the source give for LYHVLGLDKNATSDDIKKSYRKLALKYHPDKNPDNPEAADKFKEINNAHAILTDATKRNIID [Y61I] here?
**A.** -0.129 ± 0.11

**Q.** With LYHVLGLDKNATSDDIKKSYRKLALKYHPDKNPDNPEAADKFKEINNAHAILTDATKRNIKD [Y61K] as the variant, how does the abundance fitness read?
**A.** -0.174 ± 0.15

**Q.** Which abundance fitness does the source give for LYHVLGLDKNATSDDIKKSYRKLALKYHPDKNPDNPEAADKFKEINNAHAILTDATKRNILD [Y61L] here?
**A.** -0.09 ± 0.087

**Q.** Which abundance fitness does the source give for LYHVLGLDKNATSDDIKKSYRKLALKYHPDKNPDNPEAADKFKEINNAHAILTDATKRNIMD [Y61M] here?
**A.** -0.218 ± 0.12

**Q.** For LYHVLGLDKNATSDDIKKSYRKLALKYHPDKNPDNPEAADKFKEINNAHAILTDATKRNIND [Y61N], which abundance fitness is on record?
**A.** -0.199 ± 0.16

**Q.** With LYHVLGLDKNATSDDIKKSYRKLALKYHPDKNPDNPEAADKFKEINNAHAILTDATKRNIPD [Y61P] as the variant, how does the abundance fitness read?
**A.** 0.244 ± 0.12

**Q.** Which abundance fitness does the source give for LYHVLGLDKNATSDDIKKSYRKLALKYHPDKNPDNPEAADKFKEINNAHAILTDATKRNIQD [Y61Q] here?
**A.** 0.104 ± 0.14

**Q.** Which abundance fitness does the source give for LYHVLGLDKNATSDDIKKSYRKLALKYHPDKNPDNPEAADKFKEINNAHAILTDATKRNIRD [Y61R] here?
**A.** 0.03 ± 0.076

**Q.** Which abundance fitness does the source give for LYHVLGLDKNATSDDIKKSYRKLALKYHPDKNPDNPEAADKFKEINNAHAILTDATKRNISD [Y61S] here?
**A.** 0.182 ± 0.067

**Q.** For LYHVLGLDKNATSDDIKKSYRKLALKYHPDKNPDNPEAADKFKEINNAHAILTDATKRNITD [Y61T], which abundance fitness is on record?
**A.** 0.073 ± 0.11

**Q.** For LYHVLGLDKNATSDDIKKSYRKLALKYHPDKNPDNPEAADKFKEINNAHAILTDATKRNIVD [Y61V], which abundance fitness is on record?
**A.** 0.002 ± 0.083

**Q.** Which abundance fitness does the source give for LYHVLGLDKNATSDDIKKSYRKLALKYHPDKNPDNPEAADKFKEINNAHAILTDATKRNIWD [Y61W] here?
**A.** -0.511 ± 0.12

**Q.** With LYHVLGLDKNATSDDIKKSYRKLALKYHPDKNPDNPEAADKFKEINNAHAILTDATKRNIYA [D62A] as the variant, how does the abundance fitness read?
**A.** -0.188 ± 0.12

**Q.** Which abundance fitness does the source give for LYHVLGLDKNATSDDIKKSYRKLALKYHPDKNPDNPEAADKFKEINNAHAILTDATKRNIYG [D62G] here?
**A.** -0.16 ± 0.083

**Q.** Which abundance fitness does the source give for LYHVLGLDKNATSDDIKKSYRKLALKYHPDKNPDNPEAADKFKEINNAHAILTDATKRNIYK [D62K] here?
**A.** -0.661 ± 0.27

**Q.** With LYHVLGLDKNATSDDIKKSYRKLALKYHPDKNPDNPEAADKFKEINNAHAILTDATKRNIYL [D62L] as the variant, how does the abundance fitness read?
**A.** -0.472 ± 0.28

**Q.** For LYHVLGLDKNATSDDIKKSYRKLALKYHPDKNPDNPEAADKFKEINNAHAILTDATKRNIYM [D62M], which abundance fitness is on record?
**A.** -0.743 ± 0.15

**Q.** Which abundance fitness does the source give for LYHVLGLDKNATSDDIKKSYRKLALKYHPDKNPDNPEAADKFKEINNAHAILTDATKRNIYN [D62N] here?
**A.** -0.465 ± 0.12

**Q.** Which abundance fitness does the source give for LYHVLGLDKNATSDDIKKSYRKLALKYHPDKNPDNPEAADKFKEINNAHAILTDATKRNIYP [D62P] here?
**A.** -0.349 ± 0.17

**Q.** Which abundance fitness does the source give for LYHVLGLDKNATSDDIKKSYRKLALKYHPDKNPDNPEAADKFKEINNAHAILTDATKRNIYQ [D62Q] here?
**A.** -0.58 ± 0.38

**Q.** Which abundance fitness does the source give for LYHVLGLDKNATSDDIKKSYRKLALKYHPDKNPDNPEAADKFKEINNAHAILTDATKRNIYR [D62R] here?
**A.** -0.428 ± 0.4

**Q.** For LYHVLGLDKNATSDDIKKSYRKLALKYHPDKNPDNPEAADKFKEINNAHAILTDATKRNIYS [D62S], which abundance fitness is on record?
**A.** -0.421 ± 0.13

**Q.** With LYHVLGLDKNATSDDIKKSYRKLALKYHPDKNPDNPEAADKFKEINNAHAILTDATKRNIYT [D62T] as the variant, how does the abundance fitness read?
**A.** -0.894 ± 0.49

**Q.** Which abundance fitness does the source give for LYHVLGLDKNATSDDIKKSYRKLALKYHPDKNPDNPEAADKFKEINNAHAILTDATKRNIYV [D62V] here?
**A.** -0.662 ± 0.14

**Q.** For LYHVLGLDKNATSDDIKKSYRKLALKYHPDKNPDNPEAADKFKEINNAHAILTDATKRNIYW [D62W], which abundance fitness is on record?
**A.** -0.546 ± 0.27

**Q.** With LYHVLGLDKNATSDDIKKSYRKLALKYHPDKNPDNPEAADKFKEINNAHAILTDATKRNIYY [D62Y] as the variant, how does the abundance fitness read?
**A.** -0.849 ± 0.29
